Laboratory results taken from US7569748 (WISCONSIN ALUMNI RESEARCH FOUNDATION, dated 2009).

Legend:
[1] = test system: TcbA (native, from W-14 broth)
TcdAiii = target: T1, TcdAiii (Photorhabdus luminescens strain W-14); assay: native PAGE (one major band), gel filtration 860 kDa, 1 to 1 molar ratio by densitometry
T1 construct: Processed peptide of TcdA; also called A2
T1 chain: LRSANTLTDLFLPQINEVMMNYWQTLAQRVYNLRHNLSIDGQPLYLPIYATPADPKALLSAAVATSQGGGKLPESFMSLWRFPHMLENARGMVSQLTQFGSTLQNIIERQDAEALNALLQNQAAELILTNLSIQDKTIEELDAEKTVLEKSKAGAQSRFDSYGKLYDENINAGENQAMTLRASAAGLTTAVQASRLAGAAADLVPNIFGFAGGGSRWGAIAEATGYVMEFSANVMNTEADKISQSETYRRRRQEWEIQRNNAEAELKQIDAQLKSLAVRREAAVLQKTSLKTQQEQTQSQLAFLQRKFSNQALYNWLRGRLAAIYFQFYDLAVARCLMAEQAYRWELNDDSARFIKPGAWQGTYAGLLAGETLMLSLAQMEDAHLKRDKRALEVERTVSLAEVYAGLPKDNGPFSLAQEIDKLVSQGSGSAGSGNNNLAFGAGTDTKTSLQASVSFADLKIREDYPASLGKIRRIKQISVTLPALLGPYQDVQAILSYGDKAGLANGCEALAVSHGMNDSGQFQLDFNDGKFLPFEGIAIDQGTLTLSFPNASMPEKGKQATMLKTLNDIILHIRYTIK

TcbAiii = target: T2, TcbAiii (Photorhabdus luminescens strain W-14); assay: native PAGE (one major band), gel filtration 860 kDa, same molar concentration
T2 construct: Processed peptide of TcbA; also detected in E. coli preparations expressing tcbA constructs; also called B2; 58 kDa peptide of toxin B
T2 chain: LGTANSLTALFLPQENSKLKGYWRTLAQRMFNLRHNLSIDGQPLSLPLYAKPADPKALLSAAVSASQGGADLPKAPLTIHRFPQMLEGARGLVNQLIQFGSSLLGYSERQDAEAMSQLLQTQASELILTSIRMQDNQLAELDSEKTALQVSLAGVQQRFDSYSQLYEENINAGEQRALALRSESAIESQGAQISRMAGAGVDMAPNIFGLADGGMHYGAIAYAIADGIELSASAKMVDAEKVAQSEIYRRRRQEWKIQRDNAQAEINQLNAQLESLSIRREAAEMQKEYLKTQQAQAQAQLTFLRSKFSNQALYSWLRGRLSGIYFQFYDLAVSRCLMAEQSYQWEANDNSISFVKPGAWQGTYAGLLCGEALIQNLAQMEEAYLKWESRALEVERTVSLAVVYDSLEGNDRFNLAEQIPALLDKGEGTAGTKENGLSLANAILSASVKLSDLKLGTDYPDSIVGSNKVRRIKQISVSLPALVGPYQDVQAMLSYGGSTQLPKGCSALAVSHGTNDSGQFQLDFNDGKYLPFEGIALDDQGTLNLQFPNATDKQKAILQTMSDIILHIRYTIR

38 kDa W-14 Photorhabdus metalloprotease
TcbA (% of total protein) after 38 kDa protease treatment (control 58) (% of total protein) [1]: 18
cleavage of TcbA followed by SDS-PAGE densitometry [1]: the amount of peptides TcbAii and TcbAiii increased about 3-fold while the amount of TcbA peptide decreased proportionally

58 kDa W-14 Photorhabdus metalloprotease
cleavage of TcbA followed by SDS-PAGE densitometry [1]: the amount of peptides TcbAii and TcbAiii increased about 3-fold while the amount of TcbA peptide decreased proportionally

B1: TcdAii (other)
chain: LIGYNNQFSGRASQYVAPGTVSSMFSPAAYLTELYREARNLHASDSVYYLDTRRPDLKSMALSQQNMDIELSTLSLSNELLLESIKTESKLENYTKVMEMLSTFRPSGATPYHDAYENVREVIQLQDPGLEQLNASPAIAGLMHQASLLGINASISPELFNILTEEITEGNAEELYKKNFGNIEPASLAMPEYLKRYYNLSDEELSQFIGKASNFGQQEYSNNQLITPVVNSSDGTVKVYRITREYTTNAYQMDVELFPFGGENYRLDYKFKNFYNASYLSIKLNDKRELVRTEGAPQVNIEYSANITLNTADISQPFEIGLTRVLPSGSWAYAAAKFTVEEYNQYSFLLKLNKAIRLSRATELSPTILEGIVRSVNLQLDINTDVLGKVFLTKYYMQRYAIHAETALILCNAPISQRSYDNQPSQFDRLFNTPLLNGQYFSTGDEEIDLNSGSTGDWRKTILKRAFNIDDVSLFRLLKITDHDNKDGKIKNNLKNLSNLYIGKLLADIHQLTIDELDLLLIAVGEGKTNLSAISDKQLATLIRKLNTITSWLHTQKWSVFQLFIMTSTSYNKTLTPEIKNLLDTVYHGLQGFDKDKADLLHVMAPYIAATLQLSSENVAHSVLLWADKLQPGDGAMTAEKFWDWLNTKYTPGSSEAVETQEHIVQYCQALAQLEMVYHSTGINENAFRLFVTKPEMFGAATGAAPAHDALSLIMLTRFADWVNALGEKASSVLAAFEANSLTAEQLADAMNLDANLLLQASIQAQNHQHLPPVTPENAFSCWTSINTILQWVNVAQQLNVAPQGVSALVGLDYIQSMKETPTYAQWENAAGVLTAGLNSQQANTLHAFLDESRSAALSTYYIRQVAKAAAAIKSRDDLYQYLLIDNQVSAAIKTTRIAEAIASIQLYVNRALENVEENANSGVISRQFFIDWDKYNKRYSTWAGVSQLVYYPENYIDPTMRIGQTKMMDALLQSVSQSQLNADTVEDAFMSYLTSFEQVANLKVISAYHDNINNDQGLTYFIGLSETDAGEYYWRSVDHSKFNDGKFAANAWSEWHKIDCPINPYKSTIRPVIYKSRLYLLWLEQKEITKQTGNSKDGYQTETDYRYELKLAHIRYDGTWNTPITFDVNKKISELKLEKNRAPGLYCAGYQGEDTLLVMFYNQQDTLDSYKNASMQGLYIFADMASKDMTPEQSNVYRDNSYQQFDTNNVRRVNNRYAEDYEIPSSVSSRKDYGWGDYYLSMVYNGDIPTINYKAASSDLKIYISPKLRIIHNGYEGQKRNQCNLMNKYGKLGDKFIVYTSLGVNPNNSSNKLMFYPVYQYSGNTSGLNQGRLLFHRDTTYPSKVEAWIPGAKRSLTNQNAAIGDDYATDSLNKPDDLKQYIFMTDSKGTATDVSGPVEINTAISPAKVQIIVKAGGKEQTFTADKDVSIQPSPSFDEMNYQFNALEIDGSGLNFINNSASIDVTFTAFAEDGRKLGYESFSIPVTLKVSTDNALTLHHNENGAQYMQWQSYRTRLNTLFARQLVARATTGIDTILSMETQNIQEPQLGKGFYATFVIPPYNLSTHGDERWFKLYIKHVVDNNSHIIYSGQLTDTNINITLFIPLDDVPLNQDYHAKVYMTFKKSPSDGTWWGPHFVRDDKGIVTINPKSILTHFESVNVLNNISSEPMDFSGANSLYFWELFYYTPMLVAQRLLHEQNFDEANRWLKYVWSPSGYIVHGQIQNYQWNVRPLLEDTSWNSDPLDSVDPDAVAQHDPMHYKVSTFMRTLDLLIARGDHAYRQLERDTLNEAKMWYMQALHLLGDKPYLPLSTTWSDPRLDRAADITTQNAHDSAIVALRQNIPTPAPLS
notes: Processed peptide of TcdA; also called A1
binding result (TcdAiii): binds

B2: TcbAii (other)
chain: FIQGYSDLFGNRADNYAAPGSVASMFSPAAYLTELYREAKNLHDSSSIYYLDKRRPDLASLMLSQKNMDEEISTLALSNELCLAGIETKTGKSQDEVMDMLSTYRLSGETPYHHAYETVREIVHERDPGFRHLSQAPIVAAKLDPVTLLGISSHISPELYNLLIEEIPEKDEAALDTLYKTNFGDITTAQLMSPSYLARYYGVSPEDIAYVTTSLSHVGYSSDILVIPLVDGVGKMEVVRVTRTPSDNYTSQTNYIELYPQGGDNYLIKYNLSNSFGLDDFYLQYKDGSADWTEIAHNPYPDMVINQKYESQATIKRSDSDNILSIGLQRWHSGSYNFAAANFKIDQYSPKAFLLKMNKAIRLLKATGLSFATLERIVDSVNSTKSITVEVLNKVYRVKFYIDRYGISEETAAILANINISQQAVGNQLSQFEQLFNHPPLNGIRYEISEDNSKHLPNPDLNLKPDSTGDDQRKAVLKRAFQVNASELYQMLLITDRKEDGVIKNNLENLSDLYLVSLLAQIHNLTIAELNILLVICGYGDTNIYQITDDNLAKIVETLLWITQWLKTQKWTVTDLFLMTTATYSTTLTPEISNLTATLSSTLHGKESLIGEDLKRAMAPCFTSALHLTSQEVAYDLLLWIDQIQPAQITVDGFWEEVQTTPTSLKVITFAQVLAQLSLIYRRIGLSETELSLIVTQSSLLVAGKSILDHGLLTLMALEGFHTWVNGLGQHASLILAALKDGALTVTDVAQAMNKEESLLQMAANQVEKDLTKLTSWTQIDAILQWLQMSSALAVSPLDLAGMMALKYGIDHNYAAWQAAAAALMADHANQAQKKLDETFSKALCNYYINAVVDSAAGVRDRNGLYTYLLIDNQVSADVITSRIAEAIAGIQLYVNRALNRDEGQLASDVSTRQFFTDWERYNKRYSTWAGVSELVYYPENYVDPTQRIGQTKMMDALLQSINQSQLNADTVEDAFKTYLTSFEQVANLKVISAYHDNVNVDQGLTYFIGIDQAAPGTYYWRSVDHSKCENGKFAANAWGEWNKITCAVNPWKNIIRPVVYMSRLYLLWLEQQSKKSDDGKTTIYQYNLKLAHIRYDGSWNTPFTFDVTEKVKNYTSSTDAAESLGLYCTGYQGEDTLLVMFYSMQSSYSSYTDNNAPVTGLYIFADMSSDNMTNAQATNYWNNSYPQFDTVMADPDSDNKKVITRRVNNRYAEDYEIPSSVTSNSNYSWGDHSLTMLYGGSVPNITFESAAEDLRLSTNMALSIIHNGYAGTRRIQCNLMKQYASLGDKFIIYDSSFDDANRFNLVPLFKFGKDENSDDSICIYNENPSSEDKKWYFSSKDDNKTADYNGGTQCIDAGTSNKDFYYNLQEIEVISVTGGYWSSYKISNPININTGIDSAKVKVTVKAGGDDQIFTADNSTYVPQQPAPSFEEMIYQFNNLTIDCKNLNFIDNQAHIEIDFTATAQDGRFLGAETFIIPVTKKVLGTENVIALYSENNGVQYMQIGAYRTRLNTLFAQQLVSRANRGIDAVLSMETQNIQEPQLGAGTYVQLVLDKYDESIHGTNKSFAIEYVDIFKENDSFVIYQGELSETSQTVVKVFLSYFIEATGNKNHLWVRAKYQKETTDKILFDRTDEKDPHGWFLSDDHKTFSGLSSAQALKNDSEPMDFSGANALYFWELFYYTPMMMAHRLLQEQNFDAANHWFRYVWSPSGYIVDGKIAIYHWNVRPLEEDTSWNAQQLDSTDPDAVAQDDPMHYKVATFMATLDLLMARGDAAYRQLERDTLAEAKMWYTQALNLLGDEPQVMLSTTWANPTLGNAASKTTQQVRQQVLTQLRLNSRVKTPL
notes: Processed peptide of TcbA; also called B1; 201 kDa peptide
binding result (TcbAiii): binds
